Test results as given in the supplement of paper PMC11811203.

B1: THAP1; numbered along this chain (parent)
chain: MVQSCSAYGCKNRYDKDKPVSFHKFPLTRPSLCKEWEAAVRRKNFKPTKYSSICSEHFTPDCFKRECNNKLLKENAVPTIFLCTEPHDKKEDLLEPQEQLPPPPLPPPVSQVDAAIGLLMPPLQTPVNLSVFCDHNYTVEDTMHQRKRIHQLEQQVEKLRKKLKTAQQRCRRQERQLEKLKEVVHFQKEKDDVSERGYVILPNDYFEIVEVPA

Variants of: B1
Assay: THAP1 transcriptional activity (GFP+/GFP- enrichment relative to wild-type constructs) (ratio to WT); higher = more THAP1 activity (PSMB5 reporter activation)
Conditions: with PSMB5 promoter-GFP reporter
Protocol: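 Deep mutational scan of human THAP1. Site-saturation single amino acid variant library (residues 2-213) was expressed by lentivirus at MOI ~0.3 in THAP1-knockout HEK-293T cells carrying an endogenous PSMB5 promoter-GFP knock-in reporter. Five days post-transduction, BFP+ cells were FACS-sorted into GFP dim and GFP bright populations and variants were counted by Illumina sequencing. Activity is the GFP-bright/GFP-dim read fold change, mean of 2 replicates, divided by the mean fold change of wild-type (synonymous) constructs in the same screen pool; WT = 1.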

THAP1 transcriptional activity, by site and new letter:
P47: T 0.151; V 0.712; W 0.0629; K 0.111; E 0.173; I 0.36; Q 0.104; G 0.111; S 0.14; L 0.242; D 0.108; H 0.106; F 0.0757; R 0.0941; Y 0.114; N 0.138; A 0.896; C 0.229
N44: V 0.111; I 0.118; T 0.439; R 0.178; D 1.16; S 0.494; K 0.462; P 0.0859; M 0.177; E 0.348; W 0.123; F 0.301; G 1.06; A 0.194; Y 0.297; L 0.205; C 0.476; H 0.574
R41: I 0.146; L 0.233; H 0.827; E 0.197; G 1.52; Y 0.274; Q 0.878; T 0.171; C 0.763; F 0.233; A 1.37; S 0.809; N 0.809; P 0.0904; K 1.05; M 0.475; W 0.182; V 0.131
F45: I 0.0544; P 0.114; N 0.108; V 0.0786; L 0.142; E 0.0902; R 0.146; S 0.0855; M 0.12; C 0.027; H 0.161; Y 0.154; D 0.0693; K 0.0558; G 0.0858; Q 0.128; T 0.0941; A 0.0632
R42: T 0.103; G 0.0813; D 0.0738; F 0.116; M 0.0797; Y 0.103; I 0.181; P 0.0977; K 0.189; Q 0.202; E 0.118; A 0.127; W 0.128; V 0.136; S 0.158; L 0.104; C 0.114; H 0.105
A39: K 0.9; Q 0.502; I 0.271; L 0.253; S 0.512; H 0.601; N 0.865; M 0.752; Y 0.413; W 0.289; R 0.673; G 0.131; T 0.26; F 0.283; V 0.252; P 0.143
V40: S 0.14; C 0.665; F 0.119; D 0.0854; G 0.0879; R 0.1; P 0.128; T 0.238; A 0.221; Q 0.142; Y 0.101; K 0.127; M 0.853; N 0.136; H 0.17; W 0.169; I 1.6; E 0.113; L 0.867
K46: V 0.455; W 0.148; G 0.0852; Q 0.581; Y 0.335; T 0.869; F 0.339; R 0.568; M 0.442; L 0.23; I 0.465; S 0.379; D 0.0595; C 0.377; E 0.212; N 0.295; P 0.126; A 0.436; H 0.654
K43: T 0.689; V 0.726; Y 0.365; E 0.598; D 0.503; R 0.716; W 0.278; P 0.957; H 0.626; F 0.153; A 0.587; G 0.329; C 0.621; M 0.434; L 0.454; S 0.623; I 0.615; Q 1.02
T48: A 0.107; C 0.128; F 0.109; E 0.0991; D 0.113
